According to the RNAGym collection of RNA variant scans (doi:10.1073/pnas.2313332121):
Fewer inactive variants are shown than the library holds.

B1: TPR 5TU (parent)
chain: GGAUCUUCUCGAUCUAACAAAAAAGACAAAUCUGCCACAAAGCUUGAGAGCAUCUUCGGAUGCAGAGGCGGCAGCCUUCGGUGGCGCGAUAGCGCCAACGUUCUCAACUAUGACACGCAAAACGCGUGCUCCGUUGAAUGGAGUUUAUCAUG

Variants of: B1
Experiment: polymerase ribozyme fitness, log enrichment relative to wild type (log ratio); higher = more active; in vitro selection for triplet polymerase activity
In short: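 Input and output libraries were sequenced on Illumina after a single in vitro selection round, run in triplicate on PCR-built, transcribed mutant libraries of each subunit of a heterodimeric triplet polymerase ribozyme. Selection annealed libraries to a biotinylated primer, the partner subunit and triplets, incubated them frozen at −7 °C, then gel-excised extended constructs for streptavidin-bead capture and RT-PCR. Genotypes with ≥10 input reads and ≥1 read per output were kept. Fitness is the logarithm, taken in base 2, of genotype enrichment divided by wild-type enrichment, using inverse-variance-weighted replicate averages.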

Row | Variant | polymerase ribozyme fitness (log ratio)
1 | C35U A89U C95A G126A A142C | ≤ -4.2
2 | C38U C95A C108U | -3.39
3 | G46C C72U G94A U102C A110G C125G A147C | ≤ -4.2
4 | C36A C75U C95A C129G | ≤ -4.2
5 | A16U A21G A30U G48C | ≤ -4.2
6 | C38G C123A | -0.288
7 | A28U A47C | -3.9
8 | A16U G74A G84U U90C C118U A121U | ≤ -4.2
9 | U61A C75U C125A G128A A142U A147G | ≤ -4.2
10 | U6C G11A A37G A52G G86A G100A | ≤ -4.2
11 | U6C U13C C14U G34A G80C A91G | ≤ -4.2
12 | U31A U55G C93G A110C A115U C123G | ≤ -4.2
13 | C87G G94C C132G | ≤ -4.2
14 | G48C A73U U135G | ≤ -4.2
15 | U44A C85U U139C | ≤ -4.2
16 | C116U C125G | 1.23
17 | A49U A52C | -0.692
18 | A26C U78C G88A C108G C114G C149G | ≤ -4.2
19 | C76U | 0.0494
20 | C43A A47C U53A A91G | ≤ -4.2
21 | A12U U55G A142C | -1.46
22 | A24U U53A U55A C95U C99A | ≤ -4.2
23 | A29G A30C G86U A137U | ≤ -4.2
24 | A21C C51U A66G C85G | ≤ -4.2

Row | Variant | polymerase ribozyme fitness (log ratio)
25 | A12U G58A | -0.217
26 | A17G C35U C36U C95U | ≤ -4.2
27 | C85U C95U | -1.72
28 | A22C C51U G84U | -2.78
29 | A40U C51U C93U | -1.15
30 | C57U C95A A97C C123A | -0.924
31 | A41U U82A A142C | -2.88
32 | U6C C54U C76U | -2.15
33 | A22U G133C | -1.46
34 | A21G U44A G68U G83U A106G A115U C118A A119C C123U U144G | ≤ -4.2
35 | A37C G80C G92A C129A | ≤ -4.2
36 | G48C A60G C76G G94C U104C C131U | ≤ -4.2
37 | G94C C105A | -1.22
38 | U45A C75U U90A C93U A119U G141C | ≤ -4.2
39 | C18U G94A | -1.37
40 | A23U C35A A41C U55G G86C C95G C105A | ≤ -4.2
41 | A37G A60C | -3.15
42 | A28U A29U A37G A66U A73U U78G G84A | ≤ -4.2
43 | C79A G83U U134G | ≤ -4.2
44 | C35U C54G C57G C69U U82A A91U G92A A113G | ≤ -4.2
45 | G112C | -2.68
46 | G92C A115U | -1.86
47 | A19U U45G G83C U127A | ≤ -4.2
48 | C18G A37C C96G A106G | -1.07

Row | Variant | polymerase ribozyme fitness (log ratio)
49 | C87G G140C | ≤ -4.2
50 | A12G A17G A19G U53A U55A G81U G84U G117U | -4.04
51 | U77G A107U U144C U145C | ≤ -4.2
52 | C54A C149G | -3.71
53 | C14A A66U G68A C72G G92U | ≤ -4.2
54 | C14A A19C C93U C125A | -3.52
55 | A29U A41C U61A G67U G86U G92A C93A G133C | ≤ -4.2
56 | G58A U145G | 0.851
57 | A24U C35A C85U C132A | ≤ -4.2
58 | A3U A60G G70C G80C G86A U135G U144A | ≤ -4.2
59 | C14G C18G U82G G84C | ≤ -4.2
60 | G92C C116G | -1.52
61 | G48C | 0.0216
62 | G94A G133U | -3.19
63 | A28G A60C C76G | ≤ -4.2
64 | C93U U135A | -2.01
65 | A21G C93U | -0.895
66 | A20C A40C U56A G92U | -0.349
67 | C38U G81C U111G A138G | ≤ -4.2
68 | A41C A47U G59U U61A G70C G84U C125A | ≤ -4.2
69 | G48A A52U G86U | ≤ -4.2
70 | A73G G88A A107G | ≤ -4.2
71 | G88A G117U | -3.84
72 | C93G C108G | -3.9

Row | Variant | polymerase ribozyme fitness (log ratio)
73 | A39C C54A G81A | -3.05
74 | C18G A37G A66G G68C C93A G128A | ≤ -4.2
75 | U13A C38U G83C G140A | ≤ -4.2
76 | A20C C63U G88C C95U | ≤ -4.2
77 | A23U C87A G133A | ≤ -4.2
78 | C8U A41C U44G G81C G92U C93G | ≤ -4.2
79 | A16U C18G A21G A22U C51U U53G G68A G81C | ≤ -4.2
80 | U13G C87U | -1.62
81 | U9G A52G C72G C96U C105A A115G U127C G133U | ≤ -4.2
82 | U9A A41U A52C G62U C87G A89G C95U C116A A142C U146A A150C | ≤ -4.2
83 | G11U G94A A98C | -1.81
84 | A91U A142U | -3.67
85 | C72G G81U C87A C95U U104A | ≤ -4.2
86 | A21C A40C G48A C85A G94C | -2.1
87 | C93A C125U | -2.47
88 | A39C G84A U144A | -2.69
89 | C14G A40C C57G | -2.31
90 | A23G C27G A40U C75U G81C G94C U101A U109A | ≤ -4.2
91 | C8A A17U A23U A26G C27G U90G G92A A115C | ≤ -4.2
92 | A37U G84A U102C C123G | -4.19
93 | A22G G50U U56G G58U C76U A122G | -4.16
94 | G46A C85A A150C | ≤ -4.2
95 | C114U A119U | -1.73
96 | A17G C18A C69G U101G C105U A120U A142U | -1.71

Row | Variant | polymerase ribozyme fitness (log ratio)
97 | A16U U56A G83A U109C U111G | ≤ -4.2
98 | G92U G94C A106G C123A U145C | -1.97
99 | U15G A28U G46C C57U C85A G86U U90A C95U C105U | ≤ -4.2
100 | C35G G84A U104G U109G G140U | ≤ -4.2
101 | C5G C79A C96A | ≤ -4.2
102 | C38U U61C U145A | -2.49
103 | A24U U151A | ≤ -4.2
104 | A19U G48U | -0.613
105 | A12C C85U A142U | -1.48
106 | A22G C57A G59C A60C | -2.03
107 | C8A C10U C75A G86A A98U A138C | ≤ -4.2
108 | A40C A60G U139C U144C | -3.63
109 | G50U G83U C85G | -4.13
110 | G50A C51U U55A C76A C105U C108G | ≤ -4.2
111 | C8U A17G G84U G133C | ≤ -4.2
112 | A52G U56A | -0.876
113 | A22C A66C C103G G126C | ≤ -4.2
114 | G25U U45A | ≤ -4.2
115 | G58A G80C | ≤ -4.2
116 | A17U G58A C76U C87A A120G G133U | ≤ -4.2
117 | U4C C51U C76U G94A | -1.51
118 | U44A G48A G58C G83A | ≤ -4.2
119 | C8G U13C A16G A52G G83A U101G G126A | ≤ -4.2
120 | A20G U53A U56A G58A C69U C93U | -3.35

Row | Variant | polymerase ribozyme fitness (log ratio)
121 | G48C C125G | -0.571
122 | C36U G92C C116U C118U U144C | ≤ -4.2
123 | G83A A119C | -2.44
124 | G50C U104G | ≤ -4.2
125 | U6C U61A C85U A97C A120G | -3.12
126 | A16U G124U | -2.37
127 | G70U G136A | -1.86
128 | C18A U56A G58C G94A | -0.964
129 | A60G G117A | 0.434
130 | A40G C87U | -1.53
131 | A29U U45A G70A C85G | ≤ -4.2
132 | A23G G81A A121U G141U | -2.76
133 | U6A G81C G94U C125U | -2.57
134 | A16U G50A C95G C118G | ≤ -4.2
135 | G34U G58A G59A C85U U101G A150G | ≤ -4.2
136 | A16C U101G U127A | -3.71
137 | C18G A52C C93G | ≤ -4.2
138 | A21G U151C | -3.8
139 | U31G C95A C123G | 0.831
140 | C18U A40C C57A G126U | -0.291
141 | U55G G83U | -0.389
142 | A28C G86U | ≤ -4.2
143 | A16C C36U G59C | -2.53
144 | G80A G141A | -0.333

Row | Variant | polymerase ribozyme fitness (log ratio)
145 | A52U C69U G83C C116G | -4.13
146 | G48C C54A C108G C114U C125U U134A C149G | ≤ -4.2
147 | U6G C85U | -0.35
148 | C85U U127C U145A | -3.58
149 | C35U C96G | -0.818
150 | C8A A17G U55A C93A G126U G140A | ≤ -4.2
151 | G59A A60G | -0.0653
152 | G50A C57A A66C G81U G86C A97C | ≤ -4.2
153 | A60G G94A | 0.0761
154 | G50A U77G G81A A91U A97G A122U | ≤ -4.2
155 | G83U G117U | -0.498
156 | A19U G86C | -2.58
157 | U53A C54U C57A G86A | -2.08
158 | C5U A20C C43G C76G C108G C114U A120U U146G | ≤ -4.2
159 | A47U A89G C116U G133U A138C | -4.12
160 | G81C G126C U145C | 0.873
161 | A30G U53A G62U A64G | ≤ -4.2
162 | A3C G48U C69U | -2.88
163 | G25U U44G U45A U56A G80A C85U A97U | ≤ -4.2
164 | G50C C93G C99U | ≤ -4.2
165 | G11A A21G A23C C54U G70C C76A G83U | ≤ -4.2
166 | U9A G128C U139A | ≤ -4.2
167 | C57A A60G C79G | -3.6
